# Assay results: publication PMC4368798, “Protein-Binding RNA Aptamers Affect Molecular Interactions Distantly from Their Binding Sites” (PLoS ONE, 2015)
# B1: GFD^4-43 domain of uPA (domain or fragment, human, UniProt P00749 24-63, looked up)
# chain: LHQVPSNCDCLNGGTCVSNKYFSNIHWCNCPKKFGGQHCE
# notes: human uPA epidermal growth factor-like domain, residues 4-43; numbers count on: the mature protein; also called growth factor domain; source: excised from recombinant pro-uPA by Glu-C digestion, purified by size exclusion chromatography
# Target: T1, Human uPAR (uPA receptor), recombinant (human, UniProt Q03405 23-305)
# T1 construct: probably a soluble form without the GPI anchor (surmise)
# T1 sequence (Q03405 23-305): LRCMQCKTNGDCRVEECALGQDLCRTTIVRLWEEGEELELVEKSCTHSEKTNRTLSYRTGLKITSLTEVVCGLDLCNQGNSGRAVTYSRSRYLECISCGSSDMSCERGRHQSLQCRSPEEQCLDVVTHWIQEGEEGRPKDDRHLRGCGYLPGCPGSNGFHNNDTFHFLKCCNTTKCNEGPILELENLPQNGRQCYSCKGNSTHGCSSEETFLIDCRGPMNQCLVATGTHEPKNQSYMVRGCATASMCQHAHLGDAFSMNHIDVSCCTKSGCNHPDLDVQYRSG
# Assay: SPR; uPAR coupled to the sensor surface (1000 RU, 15 ug/mL in 10 mM Na acetate pH 4.5); 4 nM purified uPA variant (pro-uPA, ATF or GFD) passed over with or without RNA aptamer; bound amount after 80 s injection
# Details: both partners purified
binder,measurement,value
B1,binding result,binds
